Reference: publication PMC8348266, “Intrinsically disordered electronegative clusters improve stability and binding specificity of RNA-binding proteins”

Key:
Nop15 2xENC [1] = target: T1, Nop15 2xENC (Saccharomyces cerevisiae, UniProt P53927 39-49+39-191, internal_change); test: fluorescence polarization; ND, too weak for detection; Nop15 FP: 10 nM RNA/DNA, 20 mM Tris-HCl pH 7.5, 0.02% Tween 20, 150 or 50 mM NaCl; SRSF3 FP: 10 mM MES pH 5.5, 50 mM Arg/Glu, 0.1 mM TCEP, 0.02% Tween 20; incubated 37 °C 30 min then 25 °C 20 min, read at RT; conditions: protein: recombinant; tags: N-terminal SUMO tag (pSMT3) cleaved with Ulp1; label: 5' fluorescein; single strand
T1 sequence: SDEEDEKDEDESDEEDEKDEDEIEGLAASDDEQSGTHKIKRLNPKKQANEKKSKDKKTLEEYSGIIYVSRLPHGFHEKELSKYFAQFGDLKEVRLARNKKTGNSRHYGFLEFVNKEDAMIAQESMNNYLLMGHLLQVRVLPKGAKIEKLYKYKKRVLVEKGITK

Nop15 no-linker [2] = target: T2, Nop15 no-linker (Saccharomyces cerevisiae, UniProt P53927 40-191, del60-76); test: as above; conditions: protein: recombinant; tags: N-terminal SUMO tag (pSMT3) cleaved with Ulp1; label: 5' fluorescein; single strand
T2 sequence: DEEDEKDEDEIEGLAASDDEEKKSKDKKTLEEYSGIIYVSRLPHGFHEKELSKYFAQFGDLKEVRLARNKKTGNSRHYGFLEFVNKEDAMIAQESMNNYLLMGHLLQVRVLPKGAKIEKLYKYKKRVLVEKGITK

Nop15 no-ENC [3] = target: T3, Nop15 no-ENC (Saccharomyces cerevisiae, UniProt P53927 =SGGSSGKSGSG+50-191, internal_change); test: fluorescence polarization; 50 mM NaCl; Nop15 FP: 10 nM RNA/DNA, 20 mM Tris-HCl pH 7.5, 0.02% Tween 20, 150 or 50 mM NaCl; SRSF3 FP: 10 mM MES pH 5.5, 50 mM Arg/Glu, 0.1 mM TCEP, 0.02% Tween 20; incubated 37 °C 30 min then 25 °C 20 min, read at RT; conditions: protein: recombinant; tags: N-terminal SUMO tag (pSMT3) cleaved with Ulp1; label: 5' fluorescein; single strand
T3 sequence: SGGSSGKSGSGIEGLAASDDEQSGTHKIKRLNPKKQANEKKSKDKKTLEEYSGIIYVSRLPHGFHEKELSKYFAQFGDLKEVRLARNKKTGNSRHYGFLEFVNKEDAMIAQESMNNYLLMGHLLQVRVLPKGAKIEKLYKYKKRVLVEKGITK

Nop15 2xENC [4] = target: T1, Nop15 2xENC; test: fluorescence polarization; 150 mM NaCl; Nop15 FP: 10 nM RNA/DNA, 20 mM Tris-HCl pH 7.5, 0.02% Tween 20, 150 or 50 mM NaCl; SRSF3 FP: 10 mM MES pH 5.5, 50 mM Arg/Glu, 0.1 mM TCEP, 0.02% Tween 20; incubated 37 °C 30 min then 25 °C 20 min, read at RT; conditions: protein: recombinant; tags: N-terminal SUMO tag (pSMT3) cleaved with Ulp1; label: 5' fluorescein; hairpin with 8 bp stem and 9-nt single-stranded region
Nop15 WT (1xENC) = target: T4, Nop15 WT (1xENC) (Saccharomyces cerevisiae, UniProt P53927 40-191); test: as above; conditions: protein: recombinant, tags: N-terminal SUMO tag (pSMT3) cleaved with Ulp1, label: 5' fluorescein
T4 sequence: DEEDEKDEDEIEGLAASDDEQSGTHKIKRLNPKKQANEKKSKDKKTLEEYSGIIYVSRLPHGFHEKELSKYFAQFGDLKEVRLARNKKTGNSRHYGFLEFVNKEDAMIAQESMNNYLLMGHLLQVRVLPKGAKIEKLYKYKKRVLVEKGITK

Nop15 no-ENC [5] = target: T3, Nop15 no-ENC; test: as above; conditions: protein: recombinant, tags: N-terminal SUMO tag (pSMT3) cleaved with Ulp1, label: 5' fluorescein
Nop15 no-linker [6] = target: T2, Nop15 no-linker; test: as above; conditions: protein: recombinant, tags: N-terminal SUMO tag (pSMT3) cleaved with Ulp1, label: 5' fluorescein
[7] = hairpin with 8 bp stem and 9-nt single-stranded region

B1: nonspecific ssRNA (ssRNA)
RNA: UUCAGAGCA
binding result (Nop15 2xENC [1]): no binding | binding result (Nop15 no-linker [2]): no binding | Kd (Nop15 no-ENC [3]): 427 ± 98 nM

B2: ITS2 III.A 26-60 (structured_RNA)
RNA: UGAGUGAUACUCUUUGGAGUUAACUUGAAAUUGCU
Kd (Nop15 2xENC [4]): 1870 ± 270 nM | Kd (Nop15 WT (1xENC); [7]): 215 ± 34 nM | Kd (Nop15 no-ENC [5]; [7]): 173 ± 32 nM | Kd (Nop15 no-linker [6]; [7]): 583 ± 90 nM

B3: nonspecific stem-loop RNA (structured_RNA)
RNA: AGAGAGAGAGUCUCUCUCUC
Kd (Nop15 WT (1xENC); hairpin, 8 bp stem): 945 ± 65 nM | Kd (Nop15 no-ENC [5]; hairpin, 8 bp stem): 244 ± 18 nM | Kd (Nop15 no-linker [6]; hairpin, 8 bp stem): 14100 ± 1400 nM

B4: nonspecific ssDNA (ssDNA)
DNA: AGAGAGAGA
binding result (Nop15 2xENC [1]): no binding | binding result (Nop15 no-linker [2]): no binding | Kd (Nop15 no-ENC [3]): 1160 ± 150 nM
